± gives the uncertainty stated by the source.

This data set can be described thus: self-splicing fitness, log relative to wild type (ln ratio); higher = more splicing; Tetrahymena group I intron in knt gene, E. coli kanamycin selection, DiMSum; sequences stand for … in CUCUCU…GGAGGGAAAAGUUAUCAGGCAUGCACCUGGUAGCUAGUCUUUAAACCAAUAGAUUGCAUCGGUUUAAAAGGCAAGACCGUCAAAUUGCGGGAAAGGGGUCAACAGCCGUUCAGUACCAAGUCUCAGGGGAAACUUUGAGAUGGCCUUGCAAAGGGUAUGGUAAUAAGCUGACGGACAUGGUCCUAACCACGCAGCCAAGUCCUAAGUCAACAGAUCUUCUGUUGAUAUGGAUGCAGUUCACAGACUAAAUGUCGGUCGGGGAAGAUGUAUUCUUCUCAUAAGAUAUAGUCGGACCUCUCCUUAAUGGGAGCUAGCGGAUGAAGUGAUGCAACACUGGAGCCGCUGGGAACUAAUUUGUAUGCGAAAGUAUAUUGAUUAGUUUUGGAGUACUCGUGGUCG
In a few lines: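 Pooled colonies went to amplicon sequencing on an Illumina HiSeq 2500 after six replicate transformations. The plates were LB agar with 100 μg/mL carbenicillin, 50 μM IPTG and 0.2% rhamnose, with or without 25 μg/mL kanamycin, incubated overnight at 37°C or 30°C. The E. coli BL21(DE3) library had all eight P1ex-region intron nucleotides randomised, the intron placed in the knt kanamycin-resistance gene on pET-22b(+). DiMSum fitness is the error-weighted combination of replicate fold changes, kanamycin against none, normalised to wild type.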

For the sequence CAACAGCAAUAUUACGGAAU, the “self-splicing fitness (ln)” value runs as follows: (30 °C) -2.96 ± 0.14; (37 °C) -3.05 ± 0.2. As to UGAUAGCAAUAUUACGCUGU, the “self-splicing fitness (ln)” value reads like this: (30 °C) -2.61 ± 0.27; (37 °C) -3.08 ± 0.38. For UUCGAGCAAUAUUACGGUAG, in that order: -3.12 ± 0.31 and -0.753 ± 0.14.

For the sequence GGUGAGCAAUAUUACGGUGU, the “self-splicing fitness (ln)” value is -3.9 ± 0.36 (30 °C) and -2.05 ± 0.31 (37 °C).

As for GGUUAGCAAUAUUACGUAUC, the “self-splicing fitness (ln)” value is, setting by setting: (30 °C) -0.749 ± 0.12; (37 °C) 0.0936 ± 0.15. CCCAAGCAAUAUUACGCACA: the “self-splicing fitness (ln)” value was -2.53 ± 0.2 (30 °C) and -2.19 ± 0.31 (37 °C). As for GCGCAGCAAUAUUACGGGGG, the “self-splicing fitness (ln)” value (30 °C) is -2.2 ± 0.12 and the “self-splicing fitness (ln)” value (37 °C) was -1.4 ± 0.12. Take AUAAAGCAAUAUUACGUUCG: the “self-splicing fitness (ln)” value reads like this: (30 °C) -0.321 ± 0.085; (37 °C) 0.17 ± 0.13.

For the sequence AGUGAGCAAUAUUACGUUUU, the “self-splicing fitness (ln)” value by setting is: (30 °C) -3.26 ± 0.14; (37 °C) -2.57 ± 0.15. Take CGGCAGCAAUAUUACGGAGG: the “self-splicing fitness (ln)” value is -1.2 ± 0.086 (30 °C) and -0.0971 ± 0.11 (37 °C).

For GUCCAGCAAUAUUACGUGUG, the “self-splicing fitness (ln)” value is, setting by setting: (30 °C) -1.14 ± 0.064; (37 °C) -0.529 ± 0.068. UUUCAGCAAUAUUACGACUC: the “self-splicing fitness (ln)” value by setting is: (30 °C) -2.82 ± 0.18; (37 °C) -0.13 ± 0.14.

On to AAUGAGCAAUAUUACGACUG, for which the “self-splicing fitness (ln)” value was -3.77 ± 0.28 (30 °C) and -0.811 ± 0.19 (37 °C).

For CACGAGCAAUAUUACGCAUA, the “self-splicing fitness (ln)” value (30 °C) was -3.1 ± 0.15 and the “self-splicing fitness (ln)” value (37 °C) was -2.61 ± 0.18. For AAGUAGCAAUAUUACGCGGU, the “self-splicing fitness (ln)” value (30 °C) was -2.47 ± 0.31 and the “self-splicing fitness (ln)” value (37 °C) was -2.59 ± 0.39. As to ACAAAGCAAUAUUACGAUAC, the “self-splicing fitness (ln)” value runs as follows: (30 °C) -2.89 ± 0.2; (37 °C) -2.29 ± 0.16.

CGCUAGCAAUAUUACGGAUU: the “self-splicing fitness (ln)” value runs as follows: (30 °C) -3 ± 0.23; (37 °C) -1.52 ± 0.2. In the case of AACCAGCAAUAUUACGCCCC, the “self-splicing fitness (ln)” value (30 °C) was -0.331 ± 0.12 and the “self-splicing fitness (ln)” value (37 °C) was -0.517 ± 0.17.

With CCAAAGCAAUAUUACGAUCC, for the setting “30 °C”, the “self-splicing fitness (ln)” value was -3.73 ± 0.31. Regarding ACGGAGCAAUAUUACGCAAA, the “self-splicing fitness (ln)” value reads like this: (30 °C) -2.73 ± 0.25; (37 °C) -1.58 ± 0.22. As for GGGGAGCAAUAUUACGGUAG, the “self-splicing fitness (ln)” value (30 °C) is -3.09 ± 0.27.

UCGAAGCAAUAUUACGCCGG: the “self-splicing fitness (ln)” value reads like this: (30 °C) -2.32 ± 0.13; (37 °C) -2.18 ± 0.19. For UGUUAGCAAUAUUACGAAAG, in that order: -2.64 ± 0.14 and -2.73 ± 0.25. In the same order, the values of UACCAGCAAUAUUACGAGUG are -0.127 ± 0.052 and -0.0711 ± 0.067. With GUGCAGCAAUAUUACGACAG, the “self-splicing fitness (ln)” value reads like this: (30 °C) -2.83 ± 0.14; (37 °C) -1.71 ± 0.16. With GAAUAGCAAUAUUACGUGGC, the “self-splicing fitness (ln)” value by setting is: (30 °C) -3.67 ± 0.27; (37 °C) -1.34 ± 0.17. On to UAAUAGCAAUAUUACGCUUA, for which the “self-splicing fitness (ln)” value was -1.32 ± 0.25 (30 °C) and -0.932 ± 0.15 (37 °C). As to GAUAAGCAAUAUUACGAAAC, the “self-splicing fitness (ln)” value (30 °C) is -2.38 ± 0.2 and the “self-splicing fitness (ln)” value (37 °C) is -0.746 ± 0.19. On to GAUAAGCAAUAUUACGUAUU, for which the “self-splicing fitness (ln)” value runs as follows: (30 °C) -4.03 ± 0.37; (37 °C) -1.78 ± 0.21. Take CCGCAGCAAUAUUACGAGUG: the “self-splicing fitness (ln)” value was -0.193 ± 0.052 (30 °C) and -0.212 ± 0.069 (37 °C). With GUGCAGCAAUAUUACGUGGG, the “self-splicing fitness (ln)” value (30 °C) is -2.86 ± 0.11 and the “self-splicing fitness (ln)” value (37 °C) is -2.01 ± 0.11. ACGCAGCAAUAUUACGACGC: the “self-splicing fitness (ln)” value (30 °C) worked out at 0.036 ± 0.062 and the “self-splicing fitness (ln)” value (37 °C) was 0.169 ± 0.082. For GUAAAGCAAUAUUACGAGUG, in that order: -1.69 ± 0.059 and -0.403 ± 0.08. With GAACAGCAAUAUUACGCAAC, the “self-splicing fitness (ln)” value by setting is: (30 °C) -1.58 ± 0.097; (37 °C) -0.355 ± 0.13. For the sequence UACCAGCAAUAUUACGCACC, the “self-splicing fitness (ln)” value runs as follows: (30 °C) -1.52 ± 0.26; (37 °C) -0.172 ± 0.21. In the same order, the values of GCCAAGCAAUAUUACGCGGU are -3.73 ± 0.2 and -3.25 ± 0.27. With GAAAAGCAAUAUUACGCUUA, the “self-splicing fitness (ln)” value (30 °C) is -2.27 ± 0.14 and the “self-splicing fitness (ln)” value (37 °C) was -1.39 ± 0.14. In the same order, the values of UUAAAGCAAUAUUACGCCAA are 0.638 ± 0.29 and -0.283 ± 0.39.

(Values after the supplement of paper PMC7877785.)
